Entries after “also recorded” stand apart in the source; their conditions may differ.
How the values were obtained:
[1] = tested on: bone marrow cells; assay: BrdU incorporation assay; type: in vivo, mice; conditions: 24 hours post IL-12 administration (10 ng/mouse); control 8%
Method: It is believed that cells at S phase are more resistant to radiation. Both Brd-U incoperation and cell cycling analysis were performed to determine if IL-12 can stimulate bone marrow cell proliferation. In IL-12 treated mice, there are more bone marrow cells in S phase compared with control animals (12% vs 10%, p<0.05). Furthermore, there are more BrdU positive cells in IL-12 treated bone marrow compared with control animals (17% vs 8%, p<0.05).
24 hours post IL-12 administration (10 ng/mouse), bone marrow cells were isolated for BrdU incooperation assay (FIG. 7A).
For the BrdU assay, IL-12 (10 ng/mouse) or PBS was intravenously injected into mice. 21 hours after injection, mice were i.p. injected with 5-Bromo-2′-deoxyuridine (BrdU from Sigma) at 50 mg/kg dosage. 3 hours after BrdU injection, mice were sacrificed and whole bone marrow cells were isolated from femurs and treated with lysis buffer to destroy red blood cells. Bone marrow cells were dispersed on a slide by cytospin for the proliferation assay using BrdU immunohistochemistry system kit purchased from Oncogene Research Products (Boston, Mass.)

[2] = tested on: bone marrow; assay: Bone marrow histology (H&E) after lethal dose radiation; type: in vivo, mice; conditions: 5 ug/kg
Method: At different time post IL-12 treatment (5 ug/kg) and lethal dose radiation (1, 12 and 14 days), femurs were isolated, fixed in 10% formalin, decalcified and processed for paraffin section and for Hematoxylin & Eosin staining. FIG. 2A: 1 day post radiation; FIG. 2B: 12 days post radiation; FIG. 2C: 14 days post radiation. […] (200× magnification)
To determine if IL-112 sensitizes intestinal tract to ionizing radiation, two different doses of IL-12 and radiation were used in radioprotection assay, namely 5 ug/kg and 50 ug/kg of IL-12 and two different doses of radiation were also used. Subsequent to the administration of IL-12 and radiation, both bone marrow and the small intestine were removed from mice who received either 5 ug/kg or 50 ug/kg of IL-12 and a lethal dose radiation for histology study. The lethal doses were either 1000 rad or 1600 rad.
Mice were treated with IL-12 (100 ng/mouse) or PBS 24 hours before receiving lethal irradiation. At different days after lethal irradiation, femurs, spleens and small intestines were removed and fixed in 10% formalin buffer for 24 hours. Subsequently, bone marrow was decalcified in Rapid Decalcifier for about 30 minutes. Samples and tissues then were embedded in TissuePrep 2 paraffin wax for micro-section at 5 μm for routine Hematoxylin and Eosin staining. Some small intestines were treated with PAS (Periodic Acid Schiff) staining.

B1: IL-12: Recombinant murine interleukin 12, heterodimeric cytokine (p35+p40), purchased from R&D Systems or PeproTech (protein, UniProt P43431 23-215; P43432 23-335, looked up)
Interleukin-12 subunit alpha: RVIPVSGPARCLSQSRNLLKTTDDMVKTAREKLKHYSCTAEDIDHEDITRDQTSTLKTCLPLELHKNESCLATRETSSTTRGSCLPPQKTSLMMTLCLGSIYEDLKMYQTEFQAINAALQNHNHQQIILDKGMLVAIDELMQSLNHNGETLRQKPPVGEADPYRVKMKLCILLHAFSTRVVTINRVMGYLSSA
Interleukin-12 subunit beta: MWELEKDVYVVEVDWTPDAPGETVNLTCDTPEEDDITWTSDQRHGVIGSGKTLTITVKEFLDAGQYTCHKGGETLSHSHLLLHKKENGIWSTEILKNFKNKTFLKCEAPNYSGRFTCSWLVQRNMDLKFNIKSSSSSPDSRAVTCGMASLSAEKVTLDQRDYEKYSVSCQEDVTCPTAEETLPIELALEARQQNKYENYSTSFFIRDIIKPDPPKNLQMKPLKNSQVEVSWEYPDSWSTPHSYFSLKFFVRIQRKKEKMKETEEGCNQKGAFLVEKTSTEVQCKGGNVCVQAQDRYYNSSCSKWACVPCRVRS
BrdU positive cells in bone marrow [1]: 17% | bone marrow cellularity versus control ([2]; day 1 post lethal radiation): significant higher cellularity | bone marrow histological structure versus control ([2]; day 7 and day 10 post radiation): no significant difference | bone marrow colonies ([2]; day 12 post radiation): colonies were observed | bone marrow recovery ([2]; day 14 post radiation): full recovery of bone marrow cellularity; also recorded: significant regeneration
